PMC8602850

Assays:
[1] = molecular target: gC1qR, wild type, mature recombinant (receptor for the globular heads of C1q) (UniProt Q07021); assay: SPR; gC1qR-WT or gC1qR-ΔΔ immobilised; two-fold dilution series of analyte injected; reference-corrected sensorgrams fit to kinetic models; apparent KD
[2] = molecular target: gC1qR-ΔΔ, gC1qR deletion mutant that removed the flexible, negatively charged loops (UniProt Q07021); assay: not stated; not published; oligomeric state of gC1qR-ΔΔ in solution and in the crystal

gC1qR, wild type, mature recombinant (receptor for the globular heads of C1q), sequence (Q07021 74-282): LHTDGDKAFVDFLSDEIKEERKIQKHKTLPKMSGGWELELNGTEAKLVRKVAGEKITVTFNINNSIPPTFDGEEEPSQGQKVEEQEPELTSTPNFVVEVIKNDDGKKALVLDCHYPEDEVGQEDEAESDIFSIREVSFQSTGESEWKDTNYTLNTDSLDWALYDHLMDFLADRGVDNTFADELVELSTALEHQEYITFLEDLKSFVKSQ
gC1qR-ΔΔ, gC1qR deletion mutant that removed the flexible, negatively charged loops (from UniProt Q07021 74-282) (receptor), sequence (Q07021 74-282, stated change not applied): as the sequence (Q07021 74-282) above

Substance | Kd [1] | stoichiometry N [2]
SARS-CoV-2 Membrane-Envelope fusion protein, recombinant | 0.41 µM | –
gC1qR-ΔΔ, gC1qR deletion mutant that removed the flexible, negatively charged loops (from UniProt Q07021 74-282) (receptor) | – | 3
